B1: TRAF2 (other)
chain: AAASVTPPGSLELLQPGFSKTLLGTKLEAKYLCSACRNVLRRPFQAQCGHRYCSFCLASILSSGPQNCAACVHEGIYEEGISILESSSAFPDNAARREVESLPAVCPSDGCTWKGTLKEYESCHEGRCPLMLTECPACKGLVRLGEKERHLEHECPERSLSCRHCRAPCCGADVKAHHEVCPKFPLTCDGCGKKKIPREKFQDHVKTCGKCRVPCRFHAIGCLETVEGEKQQEHEVQWLREHLAMLLSSVLEAKPLLGDQSHAGSELLQRCESLEKKTATFENIVCVLNREVERVAMTAEACSRQHRLDQDKIEALSSKVQQLERSIGLKDLAMADLEQKVLEMEASTYDGVFIWKISDFARKRQEAVAGRIPAIFSPAFYTSRYGYKMCLRIYLNGDGTGRGTHLSLFFVVMKGPNDALLRWPFNQKVTLMLLDQNNREHVIDAFRPDVTSSSFQRPVNDMNIASGCPLFCPVSKMEAKNSYVRDDAIFIKAIVDLTGL
notes: Endogenous protein from T cell lysate
B2: TRAF1 (other)
chain: MASSSGSSPRPAPDENEFPFGCPPTVCQDPKEPRALCCAGCLSENPRNGEDQICPKCRGEDLQSISPGSRLRTQEKAHPEVAEAGIGCPFAGVGCSFKGSPQSVQEHEVTSQTSHLNLLLGFMKQWKARLGCGLESGPMALEQNLSDLQLQAAVEVAGDLEVDCYRAPCSESQEELALQHFMKEKLLAELEGKLRVFENIVAVLNKEVEASHLALATSIHQSQLDRERILSLEQRVVELQQTLAQKDQALGKLEQSLRLMEEASFDGTFLWKITNVTRRCHESACGRTVSLFSPAFYTAKYGYKLCLRLYLNGDGTGKRTHLSLFIVIMRGEYDALLPWPFRNKVTFMLLDQNNREHAIDAFRPDLSSASFQRPQSETNVASGCPLFFPLSKLQSPKHAYVKDDTMFLKCIVETST
notes: as for B1

Legend:
[1] = biological target: T1, CAR19.BBζ (human, UniProt P01732 138-206; Q07011 214-255; P20963 52-164); assay: co-IP with anti-CAR19 Ab from CAR-T cell lysate, LC-MS/MS
T1 construct: Expressed in human T cells (or Jurkat cells) and pulled down from lysate; also called CAR.BBζ; CAR19.BBC
T1 sequence (P20963 other isoform, or with tags, fused parts or gaps): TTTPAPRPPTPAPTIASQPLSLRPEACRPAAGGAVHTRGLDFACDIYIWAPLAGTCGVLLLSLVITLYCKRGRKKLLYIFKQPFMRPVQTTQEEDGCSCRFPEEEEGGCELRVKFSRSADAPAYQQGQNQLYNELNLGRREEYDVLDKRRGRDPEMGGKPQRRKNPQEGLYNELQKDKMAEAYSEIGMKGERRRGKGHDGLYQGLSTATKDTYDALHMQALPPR
Experimental: (§1) For Immunoprecipitation (IP), assay, proteins from T cells were extracted in RIPA lysis buffer (Thermo Scientific) supplemented with 1×protease/phosphatase Inhibitors (Thermo Scientific). Equal amount of total proteins was used for IP. Rabbit/mouse IgG (Thermo Scientific) with protein G magnetic beads (Bio-Rad) was used to pre-clear the lysate and anti-CAR19, anti-HA or anti-FLAG Abs were incubated with lysate for 16 hours, and protein G beads were then used for the pull-down. IP products were dissolved in 2× SDS Laemmli buffer for Western blot analysis. […] 2× SDS Laemmli buffer without β-mercaptoethanol was used to dissolve the IP product, and β-mercaptoethanol was supplemented before western blot.
For mass spectrometry (MS) assays, immunoprecipitated samples (3 biological replicates) were subjected to SDS-PAGE and stained with Coomassie blue dye. Lanes for each sample were excised and the proteins were reduced, alkylated, and in-gel digested with trypsin overnight at 37° C. Peptides were extracted, desalted with C18 spin columns (Pierce) and dried via vacuum centrifugation. Peptide samples were stored at −80° C. until further analysis. The peptide samples were analyzed by liquid chromatography coupled to tandem mass spectrometry (LC-MS/MS) in 3 separated experiments using a Thermo Easy nLC 1000 coupled to a QExactive HF or a Waters nanoAcquity coupled to a Thermo LTQ-Orbitrap Velos. Samples were injected onto a PepMap C18 column (75 μm id×25 cm, 2 μm particle size) (Thermo Scientific) and separated over a 90 or 120 min gradient where mobile phase A was 0.1% formic acid in water and mobile phase B consisted of 0.1% formic acid in ACN. The LTQ-Orbitrap Velos was operated in data-dependent mode where the 10 most abundant precursors were selected for CID fragmentation (35% CE). The QExactive HF was operated in data-dependent mode where the 15 most intense precursors were selected for subsequent HCD fragmentation (27 NCE).

[2] = biological target: T2, CD4 co-receptor (human, UniProt P01730 26-458); assay: co-IP with anti-CAR19 Ab, LC-MS/MS
T2 construct: Endogenous protein from T cell lysate

[3] = biological target: B1; assay: co-IP with anti-CAR19 Ab, LC-MS/MS; 'Values not identified are denoted by -'
Experimental: as §1
(§2) For mass spectrometry (MS) assays, immunoprecipitated samples (3 biological replicates) were subjected to SDS-PAGE and stained with Coomassie blue dye. Lanes for each sample were excised and the proteins were reduced, alkylated, and in-gel digested with trypsin overnight at 37° C. Peptides were extracted, desalted with C18 spin columns (Pierce) and dried via vacuum centrifugation. Peptide samples were stored at −80° C. until further analysis. The peptide samples were analyzed by liquid chromatography coupled to tandem mass spectrometry (LC-MS/MS) in 3 separated experiments using a Thermo Easy nLC 1000 coupled to a QExactive HF or a Waters nanoAcquity coupled to a Thermo LTQ-Orbitrap Velos. […]

[4] = biological target: B2; assay: as above
Experimental: as §1, §2

| Area [1] | Coverage [1] [%] | Peptides (number identified) [1] | binding result [2] | binding result [3] | binding result [4] | Binder |
| --- | --- | --- | --- | --- | --- | --- |
| 5.52e+07 | 14 | 6 | – | – | – | B1 |
| 5.1e+06 | 2 | 2 | – | – | – | PIK3CD (enzyme, Endogenous protein from T cell lysate) MPPGVDCPMEFWTKEENQSVVVDFLLPTGVYLNFPVSRNANLSTIKQLLWHRAQYEPLFHMLSGPEAYVFTCINQTAEQQELEDEQRRLCDVQPFLPVLRLVAREGDRVKKLINSQISLLIGKGLHEFDSLCDPEVNDFRAKMCQFCEEAAARRQQLGWEAWLQYSFPLQLEPSAQTWGPGTLRLPNRALLVNVKFEGSEESFTFQVSTKDVPLALMACALRKKATVFRQPLVEQPEDYTLQVNGRHEYLYGSYPLCQFQYICSCLHSGLTPHLTMVHSSSILAMRDEQSNPAPQVQKPRAKPPPIPAKKPSSVSLWSLEQPFRIELIQGSKVNADERMKLVVQAGLFHGNEMLCKTVSSSEVSVCSEPVWKQRLEFDINICDLPRMARLCFALYAVIEKAKKARSTKKKSKKADCPIAWANLMLFDYKDQLKTGERCLYMWPSVPDEKGELLNPTGTVRSNPNTDSAAALLICLPEVAPHPVYYPALEKILELGRHSECVHVTEEEQLQLREILERRGSGELYEHEKDLVWKLRHEVQEHFPEALARLLLVTKWNKHEDVAQMLYLLCSWPELPVLSALELLDFSFPDCHVGSFAIKSLRKLTDDELFQYLLQLVQVLKYESYLDCELTKFLLDRALANRKIGHFLFWHLRSEMHVPSVALRFGLILEAYCRGSTHHMKVLMKQGEALSKLKALNDFVKLSSQKTPKPQTKELMHLCMRQEAYLEALSHLQSPLDPSTLLAEVCVEQCTFMDSKMKPLWIMYSNEEAGSGGSVGIIFKNGDDLRQDMLTLQMIQLMDVLWKQEGLDLRMTPYGCLPTGDRTGLIEVVLRSDTIANIQLNKSNMAATAAFNKDALLNWLKSKNPGEALDRAIEEFTLSCAGYCVATYVLGIGDRHSDNIMIRESGQLFHIDFGHFLGNFKTKFGINRERVPFILTYDFVHVIQQGKTNNSEKFERFRGYCERAYTILRRHGLLFLHLFALMRAAGLPELSCSKDIQYLKDSLALGKTEEEALKHFRVKFNEALRESWKTKVNWLAHNVSKDNRQ |
| 7.34e+08 | 32 | 6 | – | – | – | CD8α (receptor, Endogenous protein from T cell lysate; The CARs themselves carry a CD8α stalk; the text says that unique peptides outside the stalk were detected; also called CD8A; CD8 co-receptor) not shown |
| 2.31e+08 | 15 | 4 | – | – | – | B2 |
| – | – | – | no binding | no binding | no binding | CAR19.28ζ (receptor, Expressed in human T cells and pulled down from lysate with the anti-CAR19 Ab; also called CAR.28ζ; CAR19.CD28ζ) not shown |
| 3.78e+07 | 4 | 2 | – | – | – | THEMIS (other, Endogenous protein from T cell lysate (Co-IP-MS); also called endogenous THEMIS; TEHMIS [sic]) MALSLEEFVHSLDLRTLPRVLEIQAGIYLEGSIYEMFGNECCFSTGEVIKITGLKVKKIIAEICEQIEGCESLQPFELPMNFPGLFKIVADKTPYLTMEEITRTIHIGPSRLGHPCFYHQKDIKLENLIIKQGEQIMLNSVEEIDGEIMVSCAVARNHQTHSFNLPLSQEGEFYECEDERIYTLKEIVEWKIPKNRTRTVNLTDFSNKWDSTNPFPKDFYGTLILKPVYEIQGVMKFRKDIIRILPSLDVEVKDITDSYDANWFLQLLSTEDLFEMTSKEFPIVTEVIEAPEGNHLPQSILQPGKTIVIHKKYQASRILASEIRSNFPKRHFLIPTSYKGKFKRRPREFPTAYDLEIAKSEKEPLHVVATKAFHSPHDKLSSVSVGDQFLVHQSETTEVLCEGIKKVVNVLACEKILKKSYEAALLPLYMEGGFVEVIHDKKQYPISELCKQFRLPFNVKVSVRDLSIEEDVLAATPGLQLEEDITDSYLLISDFANPTECWEIPVGRLNMTVQLVSNFSRDAEPFLVRTLVEEITEEQYYMMRRYESSASHPPPRPPKHPSVEETKLTLLTLAEERTVDLPKSPKRHHVDITKKLHPNQAGLDSKVLIGSQNDLVDEEKERSNRGATAIAETFKNEKHQK |

Reference: US20240156864A1 (UNIVERSITY OF NORTH CAROLINA AT CHAPEL HILL, published 2024)
